Assays:
[1] = target: fibrillar Aβ1-40 peptide (Homo sapiens (Human), UniProt P05067); experiment: EuLISA on plate-immobilized fibrils
Experimental: High binding activated microtiter plate wells were coated with 400 ng of fibrillar Aβ1-40 peptide, which was prepared by aggregation in 10 mM PBS of Aβ1-40 peptide, previously disaggregated by the trifluoro acetic acid/hexafluoroisopropanol procedure [Adekar et al., J. Biol. Chem. 285, 1066-1074 (2010)]. After blocking with 1% bovine serum albumin (BSA), F1 was serially diluted in 10 mM PBS/1% BSA and applied in 100 μl aliquots to coated wells. After incubation for 1 hr, wells were washed, and incubated with biotinylated goat anti-human IgG as a secondary antibody for 1 hr. Thereafter bound HC F1 was determined with a Eu³⁺-streptavidine conjugate followed by the release enhancement reagent (EuLISA) and measuring the amount of Eu³⁺ by time-resolved fluorescence (Victor 1420 multilabel counter) against a standard curve established with known concentrations of Eu³⁺.

[2] = target: dityrosine cross-linked Aβ preparation (CAPS) (Homo sapiens (Human), UniProt P05067, dityrosine cross-linked); experiment: EuLISA on plate-immobilized CAPS
[3] = target: T1, IAPP fibrils (Homo sapiens (Human), UniProt P10997); experiment: EuLISA on plate-immobilized fibrils (column heads of c9 and c10 seem swapped)
T1 peptide: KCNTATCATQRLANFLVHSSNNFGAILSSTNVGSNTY

B1: antibody heavy chain F1 (other)
heavy: AMDWTWSILFLVAAATGAHSQVQLVQSGAEVKKPGASVKVSCKASGYTFSSNGIIWVRQAPGQGLEWLGWISGYNGKTRYAQKVQGRVTITTDTSTSTAYMELRSLRSDDTAVYYCAREKTMVRGAISGYSDYWGQGTLVTVSSASTKGPSVFPLAPSSKSTSGGTAALGCLVKDYFPEPVTVSWNSGALTSGVHTFPAVLQSSGLYSLSSVVTVPSSSLGTQTYICNVNHKPSNTKVDKKRVEPKSCDKTHTCPPCPAPELLGGPSVFLFPPKPKDTLMISRTPEVTCVVVDVSHEDPEVKFNWYVDGVEVHNAKTKPREEQYNSTYRVVSVLTVLDHQDWLNGKEYKCKVSNKALPAPIEKTISKAKGQPREPQVYTLPPSREELMTKNQVSLTCLVKGFYPSDIAVEWESNGQPENNYKTTPPVLDSDGSFFLYSKLTVDKSRWQQGNVFSCSVMHEALHNHYTQKSLSLSPGK
**Q.** With B1 as the binder, how does the EC50 [1] read?
**A.** 23 nM

**Q.** What about the EC50 [2] of the same binder?
**A.** 28 nM

**Q.** What about the EC50 [3] of the same binder?
**A.** 40 nM

Source: patent US20110002945A1, “Use of immunoglobulin heavy and light chains or fragments thereof to bind to aggregated amyloidogenic proteins” (published 2011)
